Experimental data from PMC8091081 (Infection and Immunity, 2021).

B1: human MAb PhtD3 (antibody, V domains shown)
VH: QVQLVQSGPDVKKPGSSVKVSCKASGAAFESFAFAWVRQAPGQGFEWMGRIIPILETRDYAEKFQGRMTMTTDESTATAYMELNSLRFEDTAVYFCARDGHIMRTTLSDAALDVWGQGTTVIVSS
VL: DIVMTQSPVTLSLSPGERATLSCRASQSLTDNYLAWYQQKPGQAPRLLIYAASTRATGIPDRISGSGSGTDFTLTISRVEPEDFAMFYCQQYQNSPFTFGGGTTVEIK
B2: human MAb PhtD7 (antibody, V domains shown)
VH: EVQLVQSGAEVKKPGASVKVSCKASGDIFSDSYIHWVRQAPGQGPEWMGWVSPNTGATHYAQKLQGRVTMTSDTSISTAYLELTRLASDDTAVYYCARVLRGSYDFRGNYPHDFDYWGQGTLVTVSS
VL: QLVLTQPPSASASLGASVTLTCTLSRGHNNYPIAWLQKQTDKGPRYVMRLNSDGSHHKGDGIPDRFSGSSSGAERYLSISSLQPEDEAEYYCQTWDTGLQGVFGGGTKLFVL

How the values were obtained:
[1] = biological target: PhtD of pneumococcal strain TIGR4 (serotype 4), endogenous (Streptococcus pneumoniae TIGR4 …, UniProt A0A0H2UPR0); assay: Western blot
[2] = biological target: PhtD of pneumococcal strain TCH8431 (serotype 19A), endogenous (Streptococcus pneumoniae TCH8431 …, UniProt A0A0H2UPR0, strain); assay: Western blot
[3] = biological target: MBP-PhtD fragment, amino acids 341 to 838 (Streptococcus pneumoniae TCH8431 …, UniProt A0A0H2UPR0, strain); assay: ELISA

| Binder | binding result [1] | binding result [2] | binding result [3] |
| --- | --- | --- | --- |
| B1 | binds | binds |  |
| B2 |  |  | binds |
